Experimental findings from patent US20060058231A1 are described below.

Common to all, as to test: ELISA-like plate assay, captured BMP-7 from conditioned media, receptor-Fc detection
In general terms: An ELISA detects its analyte on a solid surface through an enzyme-linked reagent.

Test [1] addresses ActRIIa receptor-Fc fusion (UniProt P27037).
The target of test [2] is T1, BMPRII receptor-Fc fusion (UniProt Q13873).
T1 sequence (looked up): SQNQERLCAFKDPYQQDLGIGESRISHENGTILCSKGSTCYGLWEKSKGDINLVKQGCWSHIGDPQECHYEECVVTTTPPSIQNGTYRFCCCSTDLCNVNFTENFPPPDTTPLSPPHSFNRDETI

For test [3], the target named is T2, BMPRIb receptor-Fc fusion (UniProt O00238).
T2 sequence (looked up): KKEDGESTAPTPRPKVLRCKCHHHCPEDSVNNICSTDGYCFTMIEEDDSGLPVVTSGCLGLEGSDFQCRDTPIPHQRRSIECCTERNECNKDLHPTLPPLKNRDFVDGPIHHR

Test [4] concerns the target BMPRIa receptor-Fc fusion (UniProt P36894).

Sequence of ActRIIa receptor-Fc fusion (P27037 20-134 limits assumed): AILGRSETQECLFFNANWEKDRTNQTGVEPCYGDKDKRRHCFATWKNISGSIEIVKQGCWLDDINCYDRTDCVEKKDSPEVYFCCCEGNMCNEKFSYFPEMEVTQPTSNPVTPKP
Sequence of BMPRIa receptor-Fc fusion (P36894 24-152 limits assumed): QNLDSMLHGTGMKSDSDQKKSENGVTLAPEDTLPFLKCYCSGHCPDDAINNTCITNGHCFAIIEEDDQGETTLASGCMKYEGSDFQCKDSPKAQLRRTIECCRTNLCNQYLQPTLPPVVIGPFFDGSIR

Turning to “BMP-7 variant W55A (from UniProt P18075 293-431 at identity 0.99)) (ligand)”, the ActRIIa binding (relative to wild type = 1.0) (relative to wild type) in test [1] was 0.09. In test [2], this substance registered a BMPRII binding (relative to wild type = 1.0) (relative to wild type) of 0.03.

“BMP-7 variant F93A (from UniProt P18075 293-431 at identity 0.99)) (ligand)”: the BMPRII binding (relative to wild type = 1.0) (relative to wild type) in test [2] came out at 0.09.

In test [2], “BMP-7 variant L21E (from UniProt P18075 293-431 at identity 0.99)) (ligand)” yielded a BMPRII binding (relative to wild type = 1.0) (relative to wild type) of 0.07.

The substance “BMP-7 variant S77H (from UniProt P18075 293-431 at identity 0.99)) (ligand)” had a BMPRII binding (relative to wild type = 1.0) (relative to wild type) in test [2] of 0.08.

As to “BMP-7 variant F117S (from UniProt P18075 293-431 at identity 0.99)) (ligand)”, the BMPRII binding (relative to wild type = 1.0) (relative to wild type) in test [2] was -0.04. This substance yielded a BMPRIb binding (relative to wild type = 1.0) (relative to wild type) in test [3] of -0.08.

In test [2], “BMP-7 variant R48E (from UniProt P18075 293-431 at identity 0.99)) (ligand)” came in with a BMPRII binding (relative to wild type = 1.0) (relative to wild type) of -0.13. Moreover, the BMPRIb binding (relative to wild type = 1.0) (relative to wild type) in test [3] was -0.51.

In test [4], “BMP-7 variant W52P (from UniProt P18075 293-431 at identity 0.99)) (ligand)” showed a BMPRIa binding (relative to wild type = 1.0) (relative to wild type) of 0.03. This substance showed an ActRIIa binding (relative to wild type = 1.0) (relative to wild type) in test [1] of 0.07. The same substance returned a BMPRII binding (relative to wild type = 1.0) (relative to wild type) in test [2] of 0.01.

Consider “BMP-7 variant L115A (from UniProt P18075 293-431 at identity 0.99)) (ligand)”, for which the BMPRIa binding (relative to wild type = 1.0) (relative to wild type) in test [4] was -0.02. In test [1], this substance gave an ActRIIa binding (relative to wild type = 1.0) (relative to wild type) of 0.01. This substance had a BMPRII binding (relative to wild type = 1.0) (relative to wild type) in test [2] of -0.01.
